Data on 5 molecules can be found in article PMC3817407.

Test [1] addresses ECF27_1331.
Test [2] addresses T1, ECF33_375.
T1 chain: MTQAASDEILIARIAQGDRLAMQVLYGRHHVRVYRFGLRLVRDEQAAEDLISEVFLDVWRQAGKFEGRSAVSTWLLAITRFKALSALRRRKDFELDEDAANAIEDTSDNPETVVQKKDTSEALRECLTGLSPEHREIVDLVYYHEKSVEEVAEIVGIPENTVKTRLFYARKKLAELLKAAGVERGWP

Test [3] deals with T2, ECF17_1458.
T2 chain: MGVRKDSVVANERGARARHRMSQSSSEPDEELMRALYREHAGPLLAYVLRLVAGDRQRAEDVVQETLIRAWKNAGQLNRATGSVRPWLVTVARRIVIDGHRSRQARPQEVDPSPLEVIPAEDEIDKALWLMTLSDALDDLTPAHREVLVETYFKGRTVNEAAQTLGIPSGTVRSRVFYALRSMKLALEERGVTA

Test [4] has as its target T3, ECF34_1384.
T3 chain: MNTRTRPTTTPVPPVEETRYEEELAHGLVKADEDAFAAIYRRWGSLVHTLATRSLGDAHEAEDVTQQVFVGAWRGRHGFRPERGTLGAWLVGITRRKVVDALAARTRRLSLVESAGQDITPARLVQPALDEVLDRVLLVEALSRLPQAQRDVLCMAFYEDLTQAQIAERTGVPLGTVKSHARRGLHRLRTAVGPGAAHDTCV

The target in test [5] is T4, ECF12_807.
T4 chain: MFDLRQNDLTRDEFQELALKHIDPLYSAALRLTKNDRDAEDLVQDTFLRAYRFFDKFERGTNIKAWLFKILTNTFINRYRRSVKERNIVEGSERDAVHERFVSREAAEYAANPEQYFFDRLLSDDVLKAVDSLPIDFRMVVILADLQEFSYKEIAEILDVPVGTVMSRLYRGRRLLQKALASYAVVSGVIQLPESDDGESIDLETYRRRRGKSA

Test [6] concerns the target T5, ECF14_1324.
T5 chain: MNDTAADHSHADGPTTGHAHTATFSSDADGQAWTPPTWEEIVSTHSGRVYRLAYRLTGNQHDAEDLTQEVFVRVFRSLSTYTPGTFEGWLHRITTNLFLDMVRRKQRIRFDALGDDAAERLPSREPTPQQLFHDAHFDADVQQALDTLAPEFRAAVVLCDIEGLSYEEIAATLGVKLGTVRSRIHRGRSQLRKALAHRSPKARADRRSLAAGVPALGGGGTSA

In test [7] the target is T6, ECF16_973.
T6 chain: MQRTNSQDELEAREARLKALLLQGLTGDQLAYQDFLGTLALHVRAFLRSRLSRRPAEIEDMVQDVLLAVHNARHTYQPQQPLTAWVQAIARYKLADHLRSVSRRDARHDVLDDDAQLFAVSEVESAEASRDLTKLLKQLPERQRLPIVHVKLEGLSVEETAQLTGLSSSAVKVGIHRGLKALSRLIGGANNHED

The target of test [8] is T7, ECF11_3726.
T7 chain: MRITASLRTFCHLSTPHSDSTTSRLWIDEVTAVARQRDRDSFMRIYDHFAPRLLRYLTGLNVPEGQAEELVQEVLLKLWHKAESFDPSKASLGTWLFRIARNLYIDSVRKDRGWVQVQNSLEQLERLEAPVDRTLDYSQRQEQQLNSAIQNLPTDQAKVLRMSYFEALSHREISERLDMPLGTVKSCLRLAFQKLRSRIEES

Test [9] deals with T8, ECF27_4265.
T8 chain: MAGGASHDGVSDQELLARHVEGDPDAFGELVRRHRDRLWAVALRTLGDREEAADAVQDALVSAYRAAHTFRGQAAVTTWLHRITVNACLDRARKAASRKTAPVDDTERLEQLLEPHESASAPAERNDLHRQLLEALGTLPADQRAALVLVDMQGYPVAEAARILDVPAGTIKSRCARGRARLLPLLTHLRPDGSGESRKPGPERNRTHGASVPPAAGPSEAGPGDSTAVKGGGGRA

Test [10] has as its target T9, ECF11_987.
T9 chain: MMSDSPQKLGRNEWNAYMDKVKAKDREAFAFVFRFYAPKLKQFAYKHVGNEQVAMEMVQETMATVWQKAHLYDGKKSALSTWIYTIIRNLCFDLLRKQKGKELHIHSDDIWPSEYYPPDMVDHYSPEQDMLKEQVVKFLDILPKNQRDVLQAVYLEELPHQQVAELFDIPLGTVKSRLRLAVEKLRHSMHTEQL

The target of test [11] is T10, ECF22_4450.
T10 chain: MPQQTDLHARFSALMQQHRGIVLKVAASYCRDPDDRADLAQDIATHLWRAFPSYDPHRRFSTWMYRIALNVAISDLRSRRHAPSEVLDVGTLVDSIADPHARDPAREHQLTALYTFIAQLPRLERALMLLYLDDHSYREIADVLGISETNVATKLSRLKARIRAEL

Test [12] has as its target T11, ECF16_3622.
T11 chain: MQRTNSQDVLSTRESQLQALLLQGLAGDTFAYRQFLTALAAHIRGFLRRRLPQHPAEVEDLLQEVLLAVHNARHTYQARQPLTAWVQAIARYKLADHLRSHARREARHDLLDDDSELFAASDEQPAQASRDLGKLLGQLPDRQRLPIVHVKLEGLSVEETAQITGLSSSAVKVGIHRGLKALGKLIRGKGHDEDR

Test [13] addresses T12, ECF17_1691.
T12 chain: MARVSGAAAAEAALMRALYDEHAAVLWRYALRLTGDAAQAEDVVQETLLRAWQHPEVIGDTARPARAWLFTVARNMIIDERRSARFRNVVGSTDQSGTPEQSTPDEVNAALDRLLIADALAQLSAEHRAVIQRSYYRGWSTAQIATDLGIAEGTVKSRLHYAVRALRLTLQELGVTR

Test [14] deals with T13, ECF04_1609.
T13 chain: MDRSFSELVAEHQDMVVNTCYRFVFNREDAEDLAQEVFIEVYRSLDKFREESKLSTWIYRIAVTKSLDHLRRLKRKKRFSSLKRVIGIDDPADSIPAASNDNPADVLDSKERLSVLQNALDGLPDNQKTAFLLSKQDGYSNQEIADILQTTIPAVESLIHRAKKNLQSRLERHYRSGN

The target in test [15] is T14, ECF31_34.
T14 chain: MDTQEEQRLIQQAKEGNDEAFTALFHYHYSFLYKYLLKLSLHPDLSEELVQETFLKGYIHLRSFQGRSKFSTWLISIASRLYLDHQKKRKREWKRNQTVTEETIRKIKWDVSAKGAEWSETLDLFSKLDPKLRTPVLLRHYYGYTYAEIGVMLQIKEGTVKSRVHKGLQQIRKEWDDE

B1: AS03_1198 (protein)
chain: MDKDFDFDNIGKRTPYRTPDNFFEETQRKILERTVDEQRKKRRLKRIIPTVIAVAAVLAGILFTPSLRYMNTDTPSASNILAVDKNNVTTDPVDKWIKELSDEELEELVSFSENDIFLN
As to B1, the fold repression in test [1] came to 1.42; in test [2] it was 0.909; in [3], 0.894; in test [4], 0.959; in test [5] it was 1.43; in [6], 0.798. For the same molecule, the fold repression in test [7] stood at 1.49; in [8] it was 1.38; in test [9], 0.852; in test [10] it was 1.61; in test [11] it was 1.2; in [12], 1.26. Further, the fold repression amounted to 0.986 in [13], 1.54 in test [14] and 1.12 in test [15].

B2: AS01_3473 (protein)
chain: MSNYDNAELLALWLEGKLTPKQRDEFEQRCIQDSQFAEQVDAAAMVKIGADDYSSSEVPQWNKAATFEPQQANNSGSWLSGVSLVTSALAIVLVLTGTQVTTSEGELRIRFGSGQSEQALVKLVDSKLDAFKQNQQDAFTLYAQTLQQQQSESASQLTNYLLSSSRKERREDFAELIKFVNQQRSDDQLFYARQLNQLQQDVYHDATGVALESIQQ
In the case of B2, the fold repression in test [1] is 3.09; in test [2] it was 1.13; in test [3], 1.83; in [4], 1.64; in test [5], 3.57; in test [6] it was 2.61. Further, the fold repression is 1.49 in test [7]; 5.65 in test [8]; 1.92 in [9]; 1.52 in test [10]; 1.97 in [11]; 2.47 in test [12]. In addition, the fold repression amounted to 1.97 in [13], 1.67 in test [14] and 1.97 in test [15].

B3: AS03_1244 (protein)
chain: MKQFDPDVNIRPKEDSIRHYSVPDDYFASFTDKLMAQIPAVKEENTVVVPSVALWPKLRPLLYLAASFLLMIGMFKAFSLFGVGSDTGRTTSTSAGLVALDHGDTRWSEDTDYRDFLHDNCAETVSDEWVLTDFSE
For the molecule B3, the fold repression in test [1] is 2.14; in test [2] it was 1.51; in [3], 1.62; in test [4], 1.65; in [5] it was 3.08; in test [6], 2.35. For the same molecule, the fold repression is 1.79 in test [7]; 3.57 in [8]; 1.61 in test [9]; 2.14 in test [10]; 2.49 in test [11]; 2.5 in [12]. Further, the fold repression in [13] came out at 1.44; in test [14], 2.42; in [15], 1.92.

B4: AS11_987 (protein)
chain: MNKHPDNNLLEAYASGSIDAVSGLVVATHLETCSKCRAYVNQVEASQANTVSESPSEYSPEFDDMLNDIINAEPVNDNVVIQDTAFVNVAGKSFELPKTLVRFSDLVGSWRSYGGKVFSAQIDLGEDARVSLMYIGENVQIPQHTHRGLESTLVLHGGFSDEDGQYEEGDLMVRDASVKHSPFTQEGEDCLCLTVLTEPMIFTQGVARIFNLFGKGLYP
With B4, the fold repression turned out to be 3.06 in test [1]; 1.99 in test [2]; 2.13 in [3]; 2.37 in [4]; 4.25 in test [5]; 3.15 in test [6]. Further, the fold repression in [7] is 2.76; in [8], 6.99; in test [9] it was 2.05; in test [10] it was 77.4; in [11], 5.44; in test [12], 5.11. The fold repression in [13] came out at 2.68; in [14] it was 2.66; in [15], 2.53.

B5: AS04_1609 (protein)
chain: MNRTTEQRNAEVMKTIGLLDQMPRVEVDHLFRVRLMQRIEAMEVKKTSWSALPGGAFNPRLAFMALLLMLNIASALMLFMHGTPQATGSSGAIAESLTEDYGGPALSYYDDQTTIDR
Regarding B5, the fold repression in test [1] was 2.31; in test [2] it was 3.16; in [3], 3.13; in [4], 2.28; in test [5], 5.09; in [6] it was 8.02. Further, the fold repression turned out to be 6.3 in test [7]; 13.9 in test [8]; 3.11 in test [9]; 6.21 in [10]; 9.53 in test [11]; 13.1 in test [12]. For the same molecule, the fold repression amounted to 1.22 in test [13], 7.83 in [14] and 3.92 in [15].
